{
  "source": "patent US20190002549A1",
  "about": "(I MAB BIOPHARMA, published 2019)",
  "binders": {"B1": {"name": "Hu50C5-23 (antibody, V domains shown)", "VH": "EVQLVQSGAEVKKPGSSVKVSCKASGYIFTPYSIHWVRQAPGQGLEWIGYINPSTGYIEYNQHFKDRTTLTADKSTSTAYMELRSLRSEDTAVYYCARGGDYEGYFDYWGQGTTVTVSS", "VL": "DIQMTQSPSSLSASVGDRVTITCRLNENIYSFLAWYQQKPGKAPKLLVYNAETLAEDVPSRFSGSGSGTDFTLTISSLQPEDFATYYCQQHYGTPYTFGGGTKVEIK", "notes": "Humanized; also called 35230Hu50C5-23"}, "B2": {"name": "Hu50C5-17 (antibody, V domains shown)", "VH": "B1 VH with T30S", "VL": "B1 VL with D57G", "notes": "Humanized; also called 35230Hu50C5-17"}, "B3": {"name": "Hu23F4-36 (antibody, V domains shown)", "VH": "EVQLVQSGAEVKKPGASVKVSCKASDYTLTSHYLHWVRQAPGQGLEWIGWIFPGDDKTKYNEKFKGRATLTSDTSISTAYMELSRLRSDDTAVYYCARGTKYLNWNFDVWGQGTTVTVSS", "VL": "DIQLTQSPSFLSASVGDRVTITCKANQNVGTTLAWYQQKPGKAPKLLIYSASYRYSGVPSRFSGSGSGTEFTLTISSLQPEDFATYYCHQYTTYPLTFGGGTKVEIK", "notes": "Humanized"}, "B4": {"name": "Hu23F4-27 (antibody, V domains shown)", "VH": "B3 VH with D26G, L29F, I48M, A68V, L70M", "VL": "B3 VL with A43S, L46A, S60D, E70D, Y87F", "notes": "Humanized"}, "B5": {"name": "Hu23F4-13 (antibody, V domains shown)", "VH": "EVQLVQSGAEVKKPGATVKISCKVSGYTFTSHYLHWVQQAPGKGLEWIGWIFPGDDKTKYNEKFKGRATLTSDTSTDTAYMELSSLRSEDTAVYYCARGTKYLNWNFDVWGQGTTVTVSS", "VL": "B3 VL", "notes": "Humanized"}, "B6": {"name": "50C5 chimera (antibody, V domains shown)", "VH": "QVQLQQSAAELVRPGASVKMSCKASGYIFTPYSIHWIKQRPGQGLEWIGYINPSTGYIEYNQHFKDRTTLTADKSSSTAYMQLRSLTSEDSAVYYCARGGDYEGYFDYWGQGTTLTVSS", "VL": "DIQMTQSPDSLSASVGETVTITCRLNENIYSFLAWYQQRQGKSPQLLVYNAETLAEDVPSRFSGSGSGTQFSLKISSLQTDDFGTYYCQQHYGTPYTFGGGTNLEIE", "notes": "Human constant regions (captured by anti-human Fc IgG); also called 35230Hu50C5-chimera; Hu50C5-chimera"}, "B7": {"name": "Hu50C5-6 (antibody, V domains shown)", "VH": "B1 VH with T30S, I48M, T68V, L70I", "VL": "B1 VL with V48I, D57G", "notes": "Humanized; also called 35230Hu50C5-6"}, "B8": {"name": "Hu50C5-11 (antibody, V domains shown)", "VH": "B1 VH with T30S, T68V, L70I", "VL": "B1 VL with V48I, D57G", "notes": "Humanized; also called 35230Hu50C5-11"}, "B9": {"name": "Hu50C5-21 (antibody, V domains shown)", "VH": "B1 VH", "VL": "B1 VL with V48I, D57G", "notes": "Humanized; also called 35230Hu50C5-21"}, "B10": {"name": "Hu50C5-18 (antibody, V domains shown)", "VH": "B1 VH with T30S", "VL": "B1 VL", "notes": "Humanized"}, "B11": {"name": "Hu50C5-8 (antibody, V domains shown)", "VH": "B1 VH with T30S, I48M, T68V, L70I", "VL": "B1 VL", "notes": "Humanized; also called 35230Hu50C5-8"}, "B12": {"name": "Hu50C5-19 (antibody, V domains shown)", "VH": "B1 VH with T30S", "VL": "B1 VL with D70Q", "notes": "Humanized; also called 35230Hu50C5-19"}, "B13": {"name": "Hu23F4-29 (antibody, V domains shown)", "VH": "B3 VH with D26G, L29F, I48M, A68V", "VL": "B3 VL with L46A", "notes": "Humanized"}, "B14": {"name": "Hu23F4-25 (antibody, V domains shown)", "VH": "B3 VH with D26G, L29F, I48M, A68V, L70M", "VL": "B3 VL with L46A", "notes": "Humanized"}, "B15": {"name": "Hu23F4-6 (antibody, V domains shown)", "VH": "B5 VH with I48M, A68V, L70I", "VL": "B3 VL with L46A", "notes": "Humanized"}, "B16": {"name": "Hu23F4-20 (antibody, V domains shown)", "VH": "B3 VH with D26G, L29F, I48M, A68V, L70M, S72R", "VL": "B3 VL", "notes": "Humanized"}, "B17": {"name": "Hu23F4-23 (antibody, V domains shown)", "VH": "B3 VH with D26G, L29F, I48M, A68V, L70M, S72R", "VL": "B3 VL with A43S, L46A, S60D, E70D, Y87F", "notes": "Humanized"}, "B18": {"name": "Hu23F4-5 (antibody, V domains shown)", "VH": "B5 VH with I48M, A68V, L70I", "VL": "B3 VL", "notes": "Humanized"}, "B19": {"name": "23F4 chimera (antibody, V domains shown)", "VH": "QVQLQQSGPELVKPGTSMKISCKTSDYTLTSHYLHWVKQRPGQGLEWIGWIFPGDDKTKYNEKFKGKATLTSDKTSNTAYMQLSSLTSEESAVYFCARGTKYLNWNFDVWGTGTTVTVSS", "VL": "DIVLTQPQKFLSTSVGDRVSVTCKANQNVGTTLAWYQQKPGQSPKALIYSASYRYSGVPDRFTGSGSGTDFTLTISNVQSEDLAEYFCHQYTTYPLTFGGGTKLEIK", "notes": "Human constant regions (captured by anti-human Fc IgG); also called Hu23F4-chimera"}},
  "note": "Changes are numbered by the printed parent chain.",
  "data": [
    {"target": "T1, recombinant rhesus GM-CSF protein (rhesus, UniProt Q9GL44 18-144)", "T1 construct": "Bought recombinant protein (Genscript)", "T1 sequence (Q9GL44 entry or part of it limits assumed)": "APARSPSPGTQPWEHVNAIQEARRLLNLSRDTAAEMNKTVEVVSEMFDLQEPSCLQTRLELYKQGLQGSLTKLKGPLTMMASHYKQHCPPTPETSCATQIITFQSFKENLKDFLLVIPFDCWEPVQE", "test": "ELISA, rhesus GM-CSF coated at 1 ug/ml", "protocol": "Recombinant rhesus GM-CSF protein (Genscript) was coated at 1 ug/ml in PBS onto microtiter plates for 2 h at room temperature (RT). After coating of antigen, the wells were blocked with PBS/0.05% Tween (PBST) with 1% BSA for 1 h at RT. After washing of the wells with PBST, different concentrations of humanized anti-GM-CSF antibodies were added to the well and incubated for 1 at RT. For detection of the binding antibodies, the HRP-conjugated secondary antibodies against mouse Fc (Jackson Immuno Research) were added, followed by the addition of fluorogenic substrates (Roche). Between all incubation steps, the wells of the plate were washed with PBST three times. Fluorescence was measured in a TECAN Spectrafluor plate reader.", "units": {"EC50": "µg/mL"}, "values": [
      {"binder": "B1", "EC50": 0.0216},
      {"binder": "B2", "EC50": 0.0189},
      {"binder": "B3", "EC50": 0.00775},
      {"binder": "B4", "EC50": 0.00625},
      {"binder": "B5", "EC50": 0.00744}
    ]},
    {"target": "T2, recombinant human GM-CSF protein (human, UniProt P04141 18-144)", "T2 sequence (P04141 18-144 limits assumed)": "as the sequence (Q9GL44 entry or part of it limits assumed) above, with G9S, K38E, V43I, S53T, Q67R, Q104E counted along it", "test": "cell-based or functional assay", "units": {"IC50 for TF-1 proliferation": "µg/mL"}, "values": [
      {"binder": "B6", "IC50 for TF-1 proliferation": 0.0865},
      {"binder": "B7", "IC50 for TF-1 proliferation": 0.0239},
      {"binder": "B8", "IC50 for TF-1 proliferation": 0.111},
      {"binder": "B9", "IC50 for TF-1 proliferation": 0.0216},
      {"binder": "B10", "IC50 for TF-1 proliferation": 0.0413},
      {"binder": "B1", "IC50 for TF-1 proliferation": 0.0143},
      {"binder": "B11", "IC50 for TF-1 proliferation": 0.0459},
      {"binder": "B2", "IC50 for TF-1 proliferation": 0.0221},
      {"binder": "B12", "IC50 for TF-1 proliferation": 0.017},
      {"binder": "B13", "IC50 for TF-1 proliferation": 0.0274},
      {"binder": "B14", "IC50 for TF-1 proliferation": 0.0122},
      {"binder": "B15", "IC50 for TF-1 proliferation": 0.00787},
      {"binder": "B16", "IC50 for TF-1 proliferation": 0.00877},
      {"binder": "B3", "IC50 for TF-1 proliferation": 0.0033},
      {"binder": "B17", "IC50 for TF-1 proliferation": 0.00908},
      {"binder": "B4", "IC50 for TF-1 proliferation": 0.00395},
      {"binder": "B18", "IC50 for TF-1 proliferation": 0.0156},
      {"binder": "B5", "IC50 for TF-1 proliferation": 0.00495},
      {"binder": "B19", "IC50 for TF-1 proliferation": 0.00855}
    ]},
    {"target": "T2, recombinant human GM-CSF protein", "test": "SPR Biacore T200, antibody captured by anti-human Fc, GM-CSF as analyte, 25 C, 1:1 model", "protocol": "The binding kinetics of humanized antibodies were measured by Biacore as previously described. […] The binding kinetics assay of antibody to antigen was performed using Biacore T200 system through a human antibody capture approach. The anti-human Fc IgG were immobilized on CMS sensor chip according to the manufacturer's instruction. The test antibody was injected and captured by the immobilized anti-human Fc IgG. And then serial concentrations of the antigen were individually injected, and the binding profile was recorded for each concentration of antigen analyte, respectively.\nThe assay system was regenerated by injection of 10 mM Glycine-HCL pH 1.5 for 30 seconds. The running buffer was HBS-EP+ (10 mM HEPES, pH 7.4, 150 mM NaCl, 3 mM EDTA and 0.05% P20). The assay temperature was 25° C., and the association and dissociation time were 180 and 600 seconds, respectively.", "units": {"Kd": "nM", "koff": "s⁻¹", "kon": "M⁻¹ s⁻¹"}, "values": [
      {"binder": "B6", "Kd": 0.032, "koff": 0.000142, "kon": "4.43e+06"},
      {"binder": "B7", "Kd": 0.0311, "koff": 0.000138, "kon": "4.42e+06"},
      {"binder": "B8", "Kd": 0.0312, "koff": 0.000136, "kon": "4.37e+06"},
      {"binder": "B9", "Kd": 0.0236, "koff": 0.000108, "kon": "4.59e+06"},
      {"binder": "B10", "Kd": 0.0231, "koff": 0.000109, "kon": "4.72e+06"},
      {"binder": "B1", "Kd": 0.0276, "koff": 0.000125, "kon": "4.54e+06"},
      {"binder": "B11", "Kd": 0.0282, "koff": 0.000139, "kon": "4.91e+06"},
      {"binder": "B2", "Kd": 0.0249, "koff": 0.000111, "kon": "4.47e+06"},
      {"binder": "B12", "Kd": 0.023, "koff": 0.000106, "kon": "4.62e+06"},
      {"binder": "B13", "Kd": 0.152, "koff": 0.000101, "kon": 667000},
      {"binder": "B14", "Kd": 0.172, "koff": 0.000109, "kon": 635000},
      {"binder": "B15", "Kd": 0.154, "koff": 0.000135, "kon": 876000},
      {"binder": "B16", "Kd": 0.142, "koff": 0.000114, "kon": 801000},
      {"binder": "B3", "Kd": 0.0807, "koff": 0.000103, "kon": "1.27e+06"},
      {"binder": "B17", "Kd": 0.13, "koff": 0.000116, "kon": 899000},
      {"binder": "B4", "Kd": 0.102, "koff": "9.46e-05", "kon": 923000},
      {"binder": "B18", "Kd": 0.104, "koff": 0.000124, "kon": "1.19e+06"},
      {"binder": "B5", "Kd": 0.0935, "koff": 0.00012, "kon": "1.28e+06"},
      {"binder": "B19", "Kd": 0.0315, "koff": "3.87e-05", "kon": "1.23e+06"}
    ]}
  ]
}
